Article PMC3592463
Where two headings read alike, the source gives them in different places.

Tests used:
Tat(44-61) [1] = target: T1, Tat(44-61) (UniProt P04608 44-61); experiment: MST
T1 chain: GISYGRKKRRQRRRAHQN

Hfq [2] = target: T2, Hfq (E. coli, UniProt P0A6X3 1-102); experiment: MST
Hfq [3] = target: T2, Hfq; experiment: MST; remark: listed apart in the source
Tat(44-61) [4] = target: T1, Tat(44-61); experiment: MST
Hfq [5] = target: T2, Hfq; experiment: EMSA

T2 sequence (P0A6X3 whole entry): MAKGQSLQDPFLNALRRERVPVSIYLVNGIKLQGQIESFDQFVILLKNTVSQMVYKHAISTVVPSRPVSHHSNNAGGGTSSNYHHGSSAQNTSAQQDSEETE

B1: ds21R (dsRNA)
RNA 1: AUGUGGAAAAUCUCUAGCAGU
RNA 2: ACUGCUAGAGAUUUUCCACAU
With B1 the Kd (Tat(44-61) [1]) was 7.4 ± 0.9 µM.

AACUCAAUGUCUUAGUUACUG (ssRNA) [J4]: binds (Hfq [2]).

GACUCAGUGUCAGAGUCACUG (ssRNA) [J6]: no binding (Hfq [2]).

AAUUUAAUGUUUUAGUUACUA (ssRNA) [J2]: binds (Hfq [3]).

Binder AUGUGGAAAAUCUCUAGCAGU (ssRNA) [21R+] has a Kd (Tat(44-61) [4]) of 6.3 ± 0.5 µM.

AAUUCAAUGUUUUAGUUACUG (ssRNA) [J3]: binds (Hfq [2]).

B2: JM6 (dsRNA)
RNA 1: GACUCAGUGUCAGAGUCACUG
RNA 2: CAGUGACUCUGACACUGAGUC
B2: no binding (Hfq [2]).

AAUUUAAUGUUUUAUUUAUUA (ssRNA) [J1]: binds (Hfq [5]).
